The source of these data is patent publication US20060270591A1 (published 2006).

This assay concerns the target T1, VP16 fused near full-length AR (nAR, aa 36-918) (human, UniProt P10275 36-919).
T1 sequence: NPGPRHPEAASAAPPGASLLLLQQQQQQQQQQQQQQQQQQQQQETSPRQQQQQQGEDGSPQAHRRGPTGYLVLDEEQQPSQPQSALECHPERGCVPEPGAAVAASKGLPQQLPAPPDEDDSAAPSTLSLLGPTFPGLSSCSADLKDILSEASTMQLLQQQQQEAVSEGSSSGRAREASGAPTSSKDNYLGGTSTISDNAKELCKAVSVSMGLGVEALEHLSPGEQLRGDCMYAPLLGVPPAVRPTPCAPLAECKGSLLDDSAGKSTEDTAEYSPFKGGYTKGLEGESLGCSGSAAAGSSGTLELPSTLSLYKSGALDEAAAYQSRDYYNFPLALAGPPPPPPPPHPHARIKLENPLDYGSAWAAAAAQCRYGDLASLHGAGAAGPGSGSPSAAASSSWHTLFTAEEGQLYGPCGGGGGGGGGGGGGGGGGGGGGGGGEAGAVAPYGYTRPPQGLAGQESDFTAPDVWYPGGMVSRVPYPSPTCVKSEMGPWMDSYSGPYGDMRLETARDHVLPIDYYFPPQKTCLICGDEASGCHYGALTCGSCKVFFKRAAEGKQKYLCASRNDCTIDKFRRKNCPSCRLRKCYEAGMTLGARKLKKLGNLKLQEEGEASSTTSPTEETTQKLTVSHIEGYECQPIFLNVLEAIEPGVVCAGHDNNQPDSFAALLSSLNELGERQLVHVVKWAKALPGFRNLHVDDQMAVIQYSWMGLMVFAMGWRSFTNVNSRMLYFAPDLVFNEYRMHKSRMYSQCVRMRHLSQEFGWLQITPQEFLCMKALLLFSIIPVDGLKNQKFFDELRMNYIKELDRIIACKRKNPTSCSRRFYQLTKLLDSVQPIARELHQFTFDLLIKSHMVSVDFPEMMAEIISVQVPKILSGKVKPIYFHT
The experiment in a line: mammalian two-hybrid, DU145, CAT.

B1: PR-LBD (mammalian two-hybrid construct) (receptor, UniProt P06401 679-933, looked up)
chain: QDIQLIPPLINLLMSIEPDVIYAGHDNTKPDTSSSLLTSLNQLGERQLLSVVKWSKSLPGFRNLHIDDQITLIQYSWMSLMVFGLGWRSYKHVSGQMLYFAPDLILNEQRMKESSFYSLCLTMWQIPQEFVKLQVSQEEFLCMKVLLLLNTIPLEGLRSQTQFEEMRSSYIRELIKAIGLRQKGVVSSSQRFYQLTKLLDNLHDLVKQLHLYCLNTFIQSRALSVEFPEMMSEVIAAQLPKILAGMVKPLLFHKK
notes: domain: LBD; Construct not described
Regarding B1, the binding result was “no binding”.
